Results on one molecule are retold here after patent US6106844A, “Immunomodulatory peptides of vespid antigen 5” (The Rockfeller University, priority 1998, dated 2000).

One assay concerns the target T1, n-Dol m 5.01 (Dolichovespula maculata, UniProt P10736).
T1 construct: from tissue; host or cells: natural protein
T1 sequence (P10736 24-227): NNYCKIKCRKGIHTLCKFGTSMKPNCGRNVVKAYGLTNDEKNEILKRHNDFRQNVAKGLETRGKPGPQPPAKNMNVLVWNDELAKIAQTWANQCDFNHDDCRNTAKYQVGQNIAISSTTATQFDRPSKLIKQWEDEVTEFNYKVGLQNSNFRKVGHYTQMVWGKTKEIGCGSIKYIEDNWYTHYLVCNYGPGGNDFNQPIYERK
In words: Antibody response by direct ELISA of mice immunized with recombinant white faced hornet Ag5, wells coated with n-Dol m 5.01. In kind it is in vivo. The following applies: week five sera after three i.p. immunizations with rDol m 5.02 and alum. The method, then: Antibody response in mice of different haplotypes to recombinant hornet Ag5. Five strains of mice were immunized with recombinant (r) white faced hornet Ag5 and alum as adjuvant. […] The antibody titers (the reciprocal of the dilution yielding 50% of maximum signal extrapolated from ELISA curves in wells coated with r-Dol m 5.02 or n-Dol m 5.01) of these sera for n-(natural) and r-Ag5 are given in Table 3.
*Sera are from week five bleeding after three intraperitoneal
immunizations with 0.2 ml of 10 μg/ml rDol m 5.02 and alum (5 μg/ml
in 0.05 m sodium phosphate buffer, pH 6.2, on weeks 0, 2, and 4.
A general note: An ELISA detects its analyte on a solid surface through an enzyme-linked reagent.

Assay [1] deals with r-Ag5 specific spleen cells from C3H/He mice. In words: In vitro proliferation assay, spleen cells of r-Ag5-immunized C3H/He mice. In kind it is cell-based. The following applies: spleen cells from mice immunized 5 times with rAg5; blank 3130 cpm. The method, then: FIG. 13. Stimulation index profile of C3H/He mice spleens after 5 immunizations with r-Ag5. In vitro proliferation assays were performed with peptides at three concentrations: 1×10^-5 M (open bar), 1.25×10^-6 M ("uphill" hatch), and 1.56×10^-7 M ("downhill" hatch). The corresponding concentrations of recombinant Antigen 5 were 1.0×10^-6 M, 1.25×10^-7, and 1.56×10^-8 M. The blank was 3130 cpm.
(§1) The peptides of the invention can be tested in a proliferation assay for T cell responses. Generally, lymphocytes from a sensitized host are obtained. The host can be a mouse that has been immunized with a vespid venom antigen 5, or with a crossreactive protein, such as testes specific protein. Using techniques that are well known in the art, T lymphocyte response to the peptide can be measured in vitro. In a specific embodiment, infra, T cell responses are detected by measuring incorporation of ^3 H-thymidine, which increases with DNA synthesis associated with proliferation. Cell proliferation can also be detected using an MTT assay [Mossman, J. Immunol. Methods, 65:55-63,(1983); Niks and Otto, J. Immunol. Methods, 130:140-151 (1990)]. […] Alternatively, mRNA for lymphokines can be detected, e.g., by amplification [see Brenner, et al., Biotechniques, 7:1096 (1989)] or in situ hybridization [see, e.g., Kasaian and Biron, J. Immunol., 142:1287 (1989)]. […]

The subject of assay [2] is r-Ag5 specific spleen cells from P/J mice. In words: In vitro proliferation assay, spleen cells of r-Ag5-immunized P/J mice. The format is cell-based. The following applies: spleen cells from mice immunized 5 times with rAg5; blank 1730 cpm. On the procedure: FIG. 12. Stimulation index profile of P/J mice spleens after 5 immunizations with r-Ag5. In vitro proliferation assays were performed with peptides at three concentrations: 1×10^-5 M (open bar), 1.25×10^-6 M ("uphill" hatch), and 1.56×10^-7 M ("downhill" hatch). The corresponding concentrations of recombinant Antigen 5 were 1.0 ×10^-6 M, 1.25×10^-7, and 1.56×10^-8 M. The blank was 1730 cpm.
as §1

B1: r-Ag5: recombinant white faced hornet (Dolichovespula maculata) antigen 5 form 2, Dol m 5.02 (protein)
chain: NNYCKIKCSRGIHTLCKFGTSMKPNCGSKLVKVHGVSNDEKNEIVNRHNQFRQKVAKGLETRGNPGPQPPAKNMNVLVWNDELAKIAQTWANQCSFGHDQCRNTEKYQVGQNVAIASTTGNSYATMSKLIEMWENEVKDFNPKKGTMGDNNFSKVGHYTQMVWGKTKEIGCGSVKYIENNWHTHYLVCNYGPAGNYMDQPIYERK
Regarding B1, the “Half maximal Ab titer n-Dol m 5.01” value with n-Dol m 5.01 (ASW/Sn mice (haplotype s)) is recorded as 1 × 10^5; with n-Dol m 5.01 (BALB/c byj mice (haplotype d)), 4 × 10^4; with n-Dol m 5.01 (C3H/He mice (haplotype k)), 2 × 10^3; with n-Dol m 5.01 (C57B1/6 mice (haplotype b)) it was 2 × 10^1; in the assay with n-Dol m 5.01 (P/J mice (haplotype p)), 1 × 10^4. The “Stimulation Index C3H/He” value in assay [1] is on record as 12.3. For the same molecule, the “Stimulation Index P/J” value in assay [2] is given as 20.8.
